One block for each binder: values may come before it.
What was measured:
人4-1BB on Jurkat-4-1BB细胞 = target: T1, 人4-1BB on Jurkat-4-1BB细胞 (human, UniProt Q07011 24-255); assay: FACS on Jurkat-4-1BB cells
T1 construct: whole, on cells; the reporter line Jurkat-4-1BB-NFkB-luc carries the same receptor; also called Jurkat-4-1BB-NFkB-luc; CD137

4-1BB-ECD-hFc [1] = target: T2, 4-1BB-ECD-hFc (human, UniProt Q07011 24-186); assay: ELISA, method as in Example 1
T2 construct: extracellular domain; Coated on the ELISA plate; also called 4-1BB-hFc; 4-1BB-hFc蛋白; not shown: human Fc (hFc)

4-1BB-ECD-hFc [2] = target: T2, 4-1BB-ECD-hFc; assay: ELISA, 4-1BB-ECD-hFc coated

T1 sequence (Q07011 24-255): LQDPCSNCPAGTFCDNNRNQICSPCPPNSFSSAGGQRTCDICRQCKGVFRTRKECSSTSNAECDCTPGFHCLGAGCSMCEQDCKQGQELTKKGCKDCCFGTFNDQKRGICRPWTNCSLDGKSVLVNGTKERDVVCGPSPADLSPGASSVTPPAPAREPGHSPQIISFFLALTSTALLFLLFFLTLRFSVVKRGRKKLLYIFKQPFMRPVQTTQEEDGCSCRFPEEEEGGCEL

B1: 抗人4-1BB人源化抗体10B2 (antibody, V domains shown)
VH: QVQLVESGGGVVQPGRSLRLSCAASGFTFSTFGLHWVRQAPGKGLEWVAYISSDSNTIYYADTMKGRFTISRDNSKNTLYLQMNSLRAEDTAVYYCTRGDPAYYGYGGRFVYALDFWGQGTLVTVSS
VL: DVVVTQTPLSLSVTPGQPASISCRSSQSLTNSYGHTYLSWYLQKPGQSPQLLIYGISIRFSGVPDRFSGSGSGTDFTLKISRVEAEDVGVYYCLQGTHQPWTFGGGTKVEIK
notes: Humanised antibody expressed in 293 cells, purified on Protein A, captured by anti-human IgG in Biacore; also called hu10B2
binding result (人4-1BB on Jurkat-4-1BB细胞): binds
binding result (4-1BB-ECD-hFc [1]): binds

B2: 抗人4-1BB人源化抗体8H8 (antibody, V domains shown)
VH: QIQLVQSGSELKKPGASVKVSCKASGYTFSNYGMNWVRQAPGQGLEWMGWINTHTGEPTYADEFKGRFVFSLDTSVSTAYLQISSLKAEDTAVYYCARVLTMVMDYWGQGTLVTVSS
VL: DIVLTQSPDSLAVSLGERATINCRASEIIDGSGNSFVHWYQQKPGQPPKLLIYRTSTLESGVPDRFSGSGSRTDFTLTISSLQAEDVAVYYCLQTVEDPWTFGGGTKVEIK
notes: Humanised antibody expressed in 293 cells, purified on Protein A, captured by anti-human IgG in Biacore; also called hu8H8
binding result (人4-1BB on Jurkat-4-1BB细胞): binds
binding result (4-1BB-ECD-hFc [1]): binds

B3: 抗人4-1BB杂交瘤抗体8E9 (antibody, V domains shown)
VH: QAQLQQSGPELVRPGTSVKMSCKTSGYSFTGYWMHWMKQRPGQGLEWIGMIDPSNSDTRLNQKFKDKATLNVDKSSNTAYMDFSSLTSEDSAVYYCARWRYYGYDGIAYWGQGTLVTVSA
VL: DIVMTQSPSSLTVTAGEKVTVSCKSSQSLLNSGNQRNYLTWYQQKPGQPPKLLIYWASTRESGVPDHFTGSGSGTDFTLTISSVQAEDLAVYYCQNDYTYPFTFGGGTKLEIK
notes: Mouse hybridoma antibody purified on Protein A
binding result (人4-1BB on Jurkat-4-1BB细胞): binds
binding result (4-1BB-ECD-hFc [2]): binds

B4: 抗人4-1BB杂交瘤抗体1A2 (antibody, V domains shown)
VH: EAQLQQSGAELVKPGASVKLSCTASGFNIKDTYMNWMKQRPEQGLEWIGRIAPANGNTKYAPQFQDKATITADTSSNTANLQLSSLTSEDTAVYYCARSYGSNFFDYWGQGTALTVSS
VL: EIQLTQSPASLAVSLGQRATISCKSSQSVDNYDNSFMHWYQQKPGQPPKLLIKRASNLETGVPARFSGSGSRTDFTLNIHPVEEEDTATYFCQQSVENPFTFGSGTKVELK
notes: as for B3
binding result (人4-1BB on Jurkat-4-1BB细胞): binds
binding result (4-1BB-ECD-hFc [2]): binds

B5: 抗人4-1BB杂交瘤抗体8A8 (antibody, V domains shown)
VH: QVQLKQSGPGLVQPSQSLSITCTVSGFSLTNYGVHWVRQSPGKGLEWLGAIWSGGNTDYSAAFMSRVTINKDNSKSQVFFKMNSLRPDDTAIYYCARNPYYTNVMDYWGQGTSVTVSS
VL: DIQMTQSPASLSASVGETVTITCRASGNIGNFLAWYQQKQGKSPQLLVYNGETLADGVPSRFSGSGSGTQYSLKINSLQPEDFGSYYCQHFWSTPWTFGGGTKLEIK
notes: as for B3
binding result (人4-1BB on Jurkat-4-1BB细胞): binds
binding result (4-1BB-ECD-hFc [2]): binds

B6: 抗人4-1BB杂交瘤抗体3A11 (antibody, V domains shown)
VH: EVQLVETGGGLVQPNGSLKLSCAASGFIFNTNAMNWVRQAPGKGLEWIARIRSKINNYATYYADSVKDRFTISRDDSQSMLYLQMNNLKTEDTGMYYCNWDEAYWGQGTLVTVSA
VL: DIQMTQSSSYLSVSLGGRVTVTCKASDHINNWLAWYQQKPGNAPRLLIFGATSLETGVPSRFSGSASGNDYTLTITSLQTEDVATYYCQQYWSIPYTFGGGTKLEIK
notes: as for B3
binding result (人4-1BB on Jurkat-4-1BB细胞): binds
binding result (4-1BB-ECD-hFc [2]): binds

Now from value to binder:

binding result (人4-1BB on Jurkat-4-1BB细胞): binds
binding result (4-1BB-ECD-hFc [1]): binds
B7: 抗人4-1BB人源化抗体3A11 (antibody, V domains shown)
VH: EVQLVESGGGLVKPGGSLRLSCAASGFIFNTNAMNWVRQAPGKGLEWIARIRSKINNYATYYADSVKDRFTISRDDSKNTLYLQMNSLKTEDTAVYYCNWDEAYWGQGTLVTVSS
VL: DIQMTQSPSSLSASVGDRVTITCKASDHINNWLAWYQQKPGKAPKLLIFGATSLETGVPSRFSGSASGNDYTLTISSLQPEDFATYYCQQYWSIPYTFGQGTKLEIK
notes: Humanised antibody expressed in 293 cells, purified on Protein A, captured by anti-human IgG in Biacore; also called hu3A11

binding result (人4-1BB on Jurkat-4-1BB细胞): binds
binding result (4-1BB-ECD-hFc [2]): binds
B8: 抗人4-1BB杂交瘤抗体3F10 (antibody, V domains shown)
VH: QVQLQQSGAELVRPGASVKISCKAFGFTFTHHHINWVKQRPGQGLDWIGYINPYNDYSIYNQKFEGKATLTVDKSSSTAYMELSRLTSDDSAVYFCARGGLGRGYFDYWGQGTTLTVSS
VL: DIVMTQSTAIMSASLGEKVTMTCRASSSVTSSYLHWYQQKSGASPKIWISSTSNLASGVPVRFSGSGSGTSYSLTISSVEAEDAATYYCQQYSGNPYTFGGGTKLEIK
notes: as for B3

binding result (人4-1BB on Jurkat-4-1BB细胞): binds
binding result (4-1BB-ECD-hFc [2]): binds
B9: 抗人4-1BB杂交瘤抗体8H8 (antibody, V domains shown)
VH: QIQLVQSGPELKKPGETVKISCKASGYTFSNYGMNWVKQAPGKGLKWMGWINTHTGEPTYADEFKGRFAFSLETSVSTAYLQINNLKNEDTATYFCARVLTMVMDYWGQGTSVTVSS
VL: DIVLTQSPASLAVSLGQRATISCRASEIIDGSGNSFVHWYQQKPGQPPKLLIYRTSTLESGIPARFSGSGSRTDFTLTINPVEADDVATYSCLQTVEDPWTFGGGTKLEIK
notes: as for B3

binding result (人4-1BB on Jurkat-4-1BB细胞): binds
binding result (4-1BB-ECD-hFc [2]): binds
B10: 抗人4-1BB杂交瘤抗体2F10 (antibody, V domains shown)
VH: QVQLQQSGAALVKPGASVKLSCTASGFNIEDTYLNWVKQRPEQGLEWIGKIYPANGDTKYDPKFQGKATITAETPSNKAYLQLSSLTSEDTAVYYCTRGYGSNFFDCWGQGTSLTVSS
VL: DIVLTQSPASLAVALGQRATISCRASESVDSYDNSFMHWYQQKVGQPPKLLIYRASNLESGLPARFSGSGSRTDFTLTINPVEADDVATYYCQQSNEDPYTFGGGTKLEII
notes: as for B3

binding result (人4-1BB on Jurkat-4-1BB细胞): binds
binding result (4-1BB-ECD-hFc [2]): binds
B11: 抗人4-1BB杂交瘤抗体10B2 (antibody, V domains shown)
VH: DVQLVESGGGLVQPGGSRKLSCAASGFTFSTFGLHWVRQAPEKGLEWVAYISSDSNTIYYADTMKGRFTISRDNPKNTLFLQLTSLRSEDTAVYYCTRGDPAYYGYGGRFVYALDFWGQGTSVAVSS
VL: DVVVTQTPLSLPVSFGDQVSISCRSSQSLTNSYGHTYLSWYLHKPGQSPQLLIYGISIRFSGVPDRFSGSGSGTDFTLRISTVKPEDLGMYYCLQGTHQPWTFGGGTKLEIK
notes: as for B3

binding result (人4-1BB on Jurkat-4-1BB细胞): binds
binding result (4-1BB-ECD-hFc [1]): binds
B12: 抗人4-1BB人源化抗体1A2 (antibody, V domains shown)
VH: EAQLVQSGAEVKKPGATVKISCKVSGFNIKDTYMNWVQQAPGKGLEWIGRIAPANGNTKYAPQFQDRATITADTSTDTAYMELSSLRSEDTAVYYCARSYGSNFFDYWGQGTLVTVSS
VL: EIVLTQSPATLSLSPGERATLSCKSSQSVDNYDNSFMHWYQQKPGQAPRLLIYRASNLETGIPARFSGSGSRTDFTLTISSLEPEDFAVYYCQQSVENPFTFGQGTKLEIK
notes: Humanised antibody expressed in 293 cells, purified on Protein A, captured by anti-human IgG in Biacore; also called hu1A2
